Results from the DeepSol protein solubility set.

assay: soluble on expression in E. coli; label from the status in PepcDB or PDB records

Sequence | soluble on expression in E. coli
MSLCTPLTSYSGFQAIEAKPAEMKVGEDSKSTLMEKLGSPSAVSTFDNNTWYYISQTTDRVAFYMPRVIKRDVVAIKFNPADEKVASVDTYTLQDGKVIAYNGRETPTRGREMTILEQLLGNVGRGGMLPQDDTAPGQRPGDREGHHHHHH | soluble
MSLIKWGFIGCGEVTKTKSGPAFQKVEHSEVVAVMSRDGAKAKAYAKERGIRKWYDDAQELIDDPEVNAIYIATPPSSHATYAIMAMKAGKPAYIEKPMAVTYEECTRINRISKETGVPCFVAYYRRYLPYFQKVKEMVENGSIGNVINVQVRFAQPPRDLDYNRENLPWRVQADIAGGGYFYDLAPHQIDLLQDMFGCILEASGYKSNRGGLYPAEDTLSACFQFDNGLVGSGSWCFVAHDSAREDRIEIIGDKGMICFSVFTYEPIGLHTERGREEICIGNPEHVQQPLIQAVVDHLLGKSVCSCDGESATLTNWVMDKILGKLEGHHHHHH | soluble
MARVAIPSVGKDLSSMVSDRFARAEYFIIYDTESGNVEVVENTIADAHGTGPKVVQSLVSKGVEYLIASNVGRNAFETLKAAGVKVYRFEGGTVQEAIDAFSEGRLEELTTFTREG | soluble
MAHHHHHHMYYIYIYIYENGSAYQKDNDNTVENKLLENLYKLELIDNYDTPLSRVSRTDKGVSARINGINLRLNIKYENVPIFEIEKKYVKELKKKLKNIHIHDIKHVSNTFDARLNCIQRTYVYFFINKNYNIEKMKKAAKLFIGEHDFSNCCKKGKNVTSNRRTVLKFDIRNIDKHFYYFKIKGISFLYNQIRHMVAILFLVGKGLLDNNDVNNILNNTSTKRKNYHIADENGLLLYSFKFNDYKYNNHVNNKIFLNVMNKYIQSTMLLVSLCHPLKLENKNEDFFENLDDEDIKNDVIHNNMIKEINKK | not soluble
MGSDKIHHHHHHMPSDAINEGQAQDAPRMRAAEYVRMSTEHQQYSTENQADKIREYAVRRGIDIIKTYADEGKSGLRIDGRQALQSLIRDVEAGTADFDIILVYDVSRWGRFQDADESAYYEYICRRAGIQVAYCAEQFENDGSPVSTIVKGVKRAMAGEYSRELSAKVFAGQCRLIELGYRQGGPAGYGLRRTLVDVKGEVKAELSRGEHKSLQTDRVILRPGPDEEVTIVNQIYRWFIDDGMYESEIAGRLNGMRVRTDLDREWTRATVREVLTNEKYVGHNVYNRVSFKLKKLRVVNPPEMWIRRDAAFPGVVPPDVFYTAQGIIRARAHRYTNEELIERLRGLYRNRGFLSGVVINETEDMPCAAVYAHRFGSLVRAYQLVGFTPDRDYRYVEINRALRRMHPDVLRQIEGQIAGLGGIVQRDAATDVLIVNGEFTVSIVLARCHEAAGMPNRWKIRLDSSLAPDISVAARLESGNQAVRDYYLLPKVDIGSSNISLAERNAAEFESYRFETLDYLYGMAARSRVRLAA | not soluble
MGSDKIHHHHHHMRIAQVAPLWERVPPPAYGGIELVVGLLTDELVRRGHEVTLFASGDSISLANLVSVHPRALRLDSSVKEYGIYEMLQLSTVYERADEFDIIHSHMGCASLPYTKLVKTPTVHTLHGIFTPDNEKMFRYAKTEPFVSISDAQRDLRLGLNYVGTVYNGIDVNSYKFYPQPDEPPYLAFLGRISPEKGTHLAIEIAKKSGWHLKIAGKVDVVDVEYFEKEIKPLIDGKQIEYLGEADHTQKNVLMGGAVATLFPITWREPFGLVMVESMASGTPVIAMNLGSTTEVIAHGKTGFLCSNVEECVSAIAKVADLDRYTCREYVQNRFSLQAMTEGYEEVYRQILQQRFANNGHHRSTVALSKV | not soluble
YSVTVKWGKEKFEGVELNTDEPPMVFKAQLFALTGVQPARQKVMVKGGTLKDDDWGNIKMKNGMTVLMMGSADALPEEPSAKT | soluble
MVKLHLKTTCREVPIEEIISTGQIQFFKHLSESTSEFKDQKNVERFRLIYNGRALNEESLKKITDADSIRVVLLPPLKTNNHIEEEQKNRISIALKECTAPYTRPNDRRLHGFNHDFALPDHMTTLLEKHPQLVHDNQFLSVLSDWSLFRAYCVQNDFKDDPIRGQFMYTNPDFLKVVENILSTVGSRYGYENLDYANVERNRPGMLAAQRPIGGAQPVTHALLQNALQAALANIAVPPANRVPAPANVQPAQQQQEEPMQQGYEQQAATLREFGFENDELIQLALEQANGDVQAAMEFLIDLQN | not soluble
MSLKKTVSLCDITITQMLEEDSNQGHLIGDFSKVCALPTVSGKHQDLKYVNPETVAALLSGKFQGLIEKFYVIDCRYPYEYLGGHIQGALNLYSQEELFNFFLKKPIVPLDTQKRIIIVFHCEFSSERGPRMCRCLREEDRSLNQYPALYYPELYILKGGYRDFFPEYMELCEPQSYCPMHHQDHKTELLRCRSQSKVQEEGHHHHHH | soluble
MQYHEPVWIPAHLTTGEPDSFAAFTLEERLPAILDNLANHADARTDQALQQLAVEIREGEITPLPPVILGLFDQVIKPYTGRRWTDMPFLTVELYFYARILLAFGHTATTLVDPFHPIKNTVSLQAIESLTTMTGYCDSDCDITGLLRWSMTGNTADLSQQVVTDAGQISLLVDESYVAGGLFDSGLNRIDFVFDNAGMDVLTDLLLILRISRHCSRIVAHVRPWPMFVSDVTMTDMKYLIRKLVTSSIPAAKKLGEDITQLLHQNRLIFRSSSALGLPVCFCEEEALTRETFENTELVIFKGDLNYRYFVGDRRWPHTMEKRYFFERFSQPAICLRTLKSEVLVGLPADIATRTLHLQPDWLTSGRYGIIQVFAHMAGDPNSLEHHHHHH | not soluble
MGSDKIHHHHHHMAYIIPSDISAAALAGAHGPELETLAGLKTALSSDYTVYHGVHWSYDYRGQIRFGEADFVVVNQAGEMVVIEQKNGRLEDTAEGLIKVYGNTRKDVQSQVRRSVENIREKMRAASGSPPPSIDYLIYCPDHRLVRLNAVGLDVSRIVSGATPADLAGRIRQILPPGSKGGATENVHAFLRDAFQVVADVHAHVKAHERSYTRLIGGIADIVDSIEMAPLRLRLRGAPGSGKTVVAHRLYERALARGRRPLMVCFNHPLAERLAASVSPGGRVTTWHGLCVNFLAERGLKPNFEDAARNRSFWPDLAELIIAEPVPDAWRFDTLIVDEGQDFEPGWIDILHLFLTDAADIVWLEDPAQELRGIGRNELPGFVGLSVRTNYRTPQSIARFVKRALGADFVAANDLPGLGVGVSTYGLEDEQAVHLSRIVPALVRQGFAPDQIVIVTLKGATTSVLSQMTRIGTHEVSHFTGAYGDDGRQVRSRGLIRFESVQRFKGQQAPAVIVVDVNPASDPNKAERHLRQLFSAFTRATIRLEILAQKDNPMTARLLGSL | not soluble
MPYVTVKMLEGRTEEQKKALAEKVTAAVSETTGAPEENIVVFIEEMSKNHYAVGGKRLSDK | not soluble
MGSDKIHHHHHHMAVVFPSKEWMEELYKKVNADEEYRRVAANWEGDYLCVVELDEEALRDFQNPKVLRGFLGMLDSIPKEKRERFRGTPSEKLLEALGLSLDSDLSDANVEEIAKKIAENPDKILEAAKGASLNIWMDFWHGDFRNIEVAAPGEHEDAKFKLIGPYAVFKQLVMGKADAITLVVSGKLKLQGDMGYMMRNMATVKKFTDLMASIPIET | not soluble
MGSDKIHHHHHHAQYVVTGGSGSPMKASQSSGDSAERLEVYLVYGMDNVTISYTSSSSSSHQWYRYKTKRLEAEKVASTQNGTTSTIRNVEEGYGYFVEEGAVSRYVWIVDYSKYTLNISNLHVSDNSDPCSGLVLAGTGTIQPIYYYWPNTGTRRELSRQFDVIYNTLEYNSDKKEYTSKQETAVIEGNLFGKSIPAPWCDTEICVKGDYFARHFGKEVTLCIDEYQAAAVDAHIDTLLIEQEAPNMNTTKSGYCAPATVQFSAIANTPTAALFNWKIYRQGEEDNPVVRFTGEEVDYTFNQSGTFIIKLEVSDQSTTCSTEDEVQIDISESYLMIPNAFSPGTTPGINDEFRVAYKSLVKFKAWIFNRWGLQMYYWTDPAQGWDGKKGGKYVQPGVYFYVIEAEGSDGIKYKEKGDINILRPKTIQDENENIQE | not soluble
QTVLKPKVYVRARPKDMNGQGALLSGSVVDIGSGAIENRGGLIAGREALILNAQNIKNLQGDLQGKNIFAAAGSDITNTGSIGAEN | not soluble
TLKGKTALVTGSTSGIGLGIAQVLARAGANIVLNGFGDPAPALAEIARHGVKAVHHPADLSDVAQIEALFALAEREFGGVDILVNNAGIQHVAPVEQFPLESWDKIIALNLSAVFHGTRLALPGMRARNWGRIINIASVHGLVGSTGKAAYVAAKHGVVGLTKVVGLETATSNVTCNAICPGWVLTPLVQKQIDDRAANGGDPLQAQHDLLAEKQPSLAFVTPEHLGELVLFLCSEAGSQVRGAAWNVDGGWLAQ | soluble
AIAGGAVSAGQDNDELIDNLKEAQYIRTEAVEKAFRAIDRADYYLEEFKQNAYRDLAWKHGNIHLSAPCIYSEVMEALDLQPGLSFLNLGSGTGYLNTMAGLILGPFGINHGVEIHADVIEYAKEKLDLFVHTSDSFDRFDFCEPSFVAGNCLDIALDCMYDRVYCGAGVQKEHKEYMKNLIKVGGILVLPLEEKLTKITRTGPSSWETKKILAVSFAPLIQPDHVESAKSKSLQLPLPNIRSLQDLSRITIRRHIKKIVNQVPNGRGDGVMKNPPRYKRKRLRRRPLQTVVYLEEGGFACRIQNSFDDNNNCEGAGNCEGAGDDLAEKEEQGVSETKPNPPVNFLREKILCLPLPVPLKYYLLYYREK | soluble
MGSDKIHHHHHHMETLLKISGVDKSFPGVKALNNACLSVYAGRVMALMGENGAGKSTLMKVLTGIYSKDAGTIEYLNRSVNFNGPKASQEAGISIIHQELNLVGNLTIAENIFLGREFKTSWGAINWQKMHQEADKLLARLGVTHSSKQLCAELSIGEQQMVEIAKALSFESKVIIMDEPTDALTDTETEALFNVIRELKAENRGIVYISHRLKEIFQICDDVTVLRDGQFIGERVMAEITEDDLIEMMVGRRLDEQYPHLSQEKGECVLDVKHVSGSGIDDVSFKLHAGEIVGVSGLMGAGRTELGKLLYGALPKTAGKVRLKNQEIENRSPQDGLDNGIVYISEDRKGDGLVLGMSVKENMSLTSLDHFSQKGGIRHQAEKMAVDDFILMFNIKTPNRDQQVGLLSGGNQQKVAIARGLMTRPNVLILDEPTRGVDVGAKKEIYQLINEFKKEGLSILMISSDMPEVLGMSDRVLVMREGKISAEFSREEATQEKLLAAAIGK | not soluble
MSTLEIKNLHAQVVPADESAAPKPILKGVNLTIKSGETHAIMGPNGSGKSTLAYTLSGHPRYEVTDGEVLLDGENILDMDIDERARAGLFLAMQYPTEIPGVSMANFLRSAATAVRGEAPKLREWVKEVKQAQQDLKIDKAFNERSVNEGFSGGEKKRHEVLQLDLLQPKFAVMDETDSGLDVDALRIVSEGINRYQEKSNGGILMITHYKRILNYVQPDFVHVFANGQIITSGGPELADDLEANGYDRFLA | not soluble
MGSDKIHHHHHHMPDAAGGVRVPHPPRPFDRPDRPAARLCRTQQLHPRVPPLERHLAPRLAGTAEPDRALKPQDKSLSKADPMTRLLLLEGNTADKRARGRELGVRSSSEIYAQAIAAHFPRIELDVLNGADEGEAIPHDRSWADYDGFVVTGSSLHAYDREFAVTNQIALVAQAAEHGLPIFGSCWGLQIAVMAAGGEVAYNPRGREVGFARKIALNDAGRAHPMFGAKQHVFDAPCIHYDEVVRMPDGATLLASNGHSLVQAAVIPLGQSEVWAVQYHPEFDLAQLVQLYTLYAADMIAQGFFSNEAELVAYRDKIARLAQDPTDAGLAWQLGIDADVLDPRQRAAEIIAWIESRVLNGT | not soluble
MGSDKIHHHHHHMQLPSLQSATLIRRYKRFLADVQLPSGDITTLHCANTGAMIGCGSQGDTLWYSTSDSATRKYPSSWELTQLANGHLVCINTHRSNQLTFDALQKKQIIELAMYDKIYPEVKYGEENSRIDFLLKGKDLPDCYVEVKSITYVDNDKKLGMFPDAVTTRGQKHLRELISMKKQGHRAVIFFCGLHDGFDHFQIAKHIDARYDELLHQALKEGVEAYAYAAEFEKTQGIPTALNLTKVAPFKAG | not soluble
